# Data from paper PMC3115793 (The Journal of Cell Biology, 2011).
# T1: recombinant purified full-length AurA (His-AurA) (UniProt O14965 1-403)
# T1 sequence (looked up): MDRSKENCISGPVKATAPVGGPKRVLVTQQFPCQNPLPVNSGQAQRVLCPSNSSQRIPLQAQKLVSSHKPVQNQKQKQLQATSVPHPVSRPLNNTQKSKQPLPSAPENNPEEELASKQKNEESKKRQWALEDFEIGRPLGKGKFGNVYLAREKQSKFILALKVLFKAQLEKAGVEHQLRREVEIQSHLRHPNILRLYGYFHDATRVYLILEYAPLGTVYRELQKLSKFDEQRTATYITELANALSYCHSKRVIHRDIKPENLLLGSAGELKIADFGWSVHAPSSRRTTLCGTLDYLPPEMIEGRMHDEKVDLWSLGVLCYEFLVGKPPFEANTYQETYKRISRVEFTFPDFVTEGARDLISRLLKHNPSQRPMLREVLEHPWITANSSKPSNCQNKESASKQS
# B1: GST fused to aa 779-968 of the PC2 C terminus (domain or fragment, human, UniProt Q13563 779-968, looked up)
# chain: RDDLEKEREDLDLDHSSLPRPMSSRSFPRSLDDSEEDDDEDSGHSSRRRGSISSGVSYEEFQVLVRRVDRMEHSIGSIVSKIDAVIVKLEIMERAKLKRREVLGRLLDGVAEDERLGRDSEIHREQMERLVREELERWESDDAASQISHGLGTPVGLNGQPRPRSSRPSSSQSTEGMEGAGGNGSSNVHV
# Molecular target: T1, recombinant purified full-length AurA …
# Assay: pull-down
binder,measurement,value
B1,binding result,binds
